Test results: article PMC9482650, “Quantitative fragmentomics allow affinity mapping of interactomes” (Nature Communications, 2022)

T1: PCLO, Q9Y6V0
T1 sequence (Q9Y6V0 4491-4600, limits assumed, looked up): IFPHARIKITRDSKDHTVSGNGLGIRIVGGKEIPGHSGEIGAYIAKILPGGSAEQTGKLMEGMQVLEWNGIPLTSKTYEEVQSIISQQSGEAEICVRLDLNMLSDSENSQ

T2: LIN7A, O14910
T2 sequence (O14910 103-200, limits assumed, looked up): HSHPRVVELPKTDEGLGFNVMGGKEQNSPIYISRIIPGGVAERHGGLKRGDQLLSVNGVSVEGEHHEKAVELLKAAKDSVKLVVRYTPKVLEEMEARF

T3: PTPN13_1, Q12923
T3 sequence (Q12923 1088-1188, limits assumed, looked up): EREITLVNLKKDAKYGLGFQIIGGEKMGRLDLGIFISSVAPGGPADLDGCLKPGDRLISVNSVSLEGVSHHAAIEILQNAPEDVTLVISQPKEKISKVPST

T4: ARHGEF11, O15085
T4 sequence (O15085 42-136, limits assumed, looked up): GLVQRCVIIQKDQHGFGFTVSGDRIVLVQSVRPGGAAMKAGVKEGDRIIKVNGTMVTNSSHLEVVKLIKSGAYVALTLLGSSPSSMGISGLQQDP

T5: GRIP1_5, Q9Y3R0
T5 sequence (Q9Y3R0 568-668, limits assumed, looked up): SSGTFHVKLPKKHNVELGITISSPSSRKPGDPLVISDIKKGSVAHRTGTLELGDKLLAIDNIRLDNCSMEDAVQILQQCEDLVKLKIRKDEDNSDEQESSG

T6: MPP7, Q5T2T1
T6 sequence (Q5T2T1 134-230, limits assumed, looked up): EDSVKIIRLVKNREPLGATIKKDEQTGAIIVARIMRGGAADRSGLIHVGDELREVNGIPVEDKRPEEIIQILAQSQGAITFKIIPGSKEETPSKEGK

T7: SYNJ2BP, P57105
T7 sequence (P57105 8-110, limits assumed, looked up): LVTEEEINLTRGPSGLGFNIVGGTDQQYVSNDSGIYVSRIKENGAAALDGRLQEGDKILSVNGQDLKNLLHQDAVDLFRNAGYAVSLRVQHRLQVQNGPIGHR

T8: MPP6, Q9NZW5
T8 sequence (Q9NZW5 125-219, limits assumed, looked up): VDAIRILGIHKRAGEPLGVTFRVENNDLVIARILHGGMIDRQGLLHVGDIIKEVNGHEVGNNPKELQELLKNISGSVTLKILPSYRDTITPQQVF

T9: PDZRN3_1, Q9UPQ7
T9 sequence (Q9UPQ7 244-349, limits assumed, looked up): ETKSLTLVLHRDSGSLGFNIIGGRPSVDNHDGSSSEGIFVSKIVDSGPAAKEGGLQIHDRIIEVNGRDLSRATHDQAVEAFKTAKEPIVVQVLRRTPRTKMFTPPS

T10: GRIP1_7, Q9Y3R0
T10 sequence (Q9Y3R0 999-1096, limits assumed, looked up): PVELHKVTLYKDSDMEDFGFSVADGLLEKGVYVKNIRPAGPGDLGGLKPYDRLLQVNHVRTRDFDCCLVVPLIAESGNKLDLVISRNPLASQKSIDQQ

B1: SIPA1, Q96FS4 (peptide)
chain: QLGSPTADLA
B2: MCC, P23508 (peptide)
chain: SRPHTNETSL
B3: GYPC, P04921 (peptide)
chain: GDSSRKEYFI
B4: FKBP4, Q02790 (peptide)
chain: GSQSQVETEA
B5: CLDN8, P56748 (peptide)
chain: PSVYSRSQYV

molecular target: NHERF4_2, Q86UT5; experiment: holdup assay; design: key: below the threshold = too weak to quantify, mostly under pKd 3.1 to 4; conditions: plain residues with an end cap or a label only (N-terminal biotin on a linker: ado-ado)
Sequence (Q86UT5 220-308): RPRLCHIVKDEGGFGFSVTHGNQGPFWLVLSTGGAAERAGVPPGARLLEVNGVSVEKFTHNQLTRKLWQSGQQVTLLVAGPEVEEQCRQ

pKd	Binder
below the threshold	B1
below the threshold	B2
below the threshold	B3
below the threshold	B4
below the threshold	B5

molecular target: T1, PCLO, Q9Y6V0; experiment: holdup assay; design: key: below the threshold = too weak to quantify, mostly under pKd 3.1 to 4; conditions: plain residues with an end cap or a label only (N-terminal biotin on a linker: ado-ado)

pKd	Binder
below the threshold	B1
below the threshold	B2
below the threshold	B3
below the threshold	B4
below the threshold	B5

molecular target: DLG4_2, P78352; experiment: holdup assay; design: key: below the threshold = too weak to quantify, mostly under pKd 3.1 to 4; conditions: plain residues with an end cap or a label only (N-terminal biotin on a linker: ado-ado)
Sequence (P78352 155-259): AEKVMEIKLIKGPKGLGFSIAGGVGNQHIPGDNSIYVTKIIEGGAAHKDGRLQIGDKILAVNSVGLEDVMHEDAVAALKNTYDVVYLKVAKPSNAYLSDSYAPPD

pKd	Binder
3.54	B1
3.83	B2
3.61	B3
3.59	B4
3.79	B5

molecular target: HTRA1, Q92743; experiment: holdup assay; design: key: below the threshold = too weak to quantify, mostly under pKd 3.1 to 4; conditions: plain residues with an end cap or a label only (N-terminal biotin on a linker: ado-ado)
Sequence (Q92743 360-477): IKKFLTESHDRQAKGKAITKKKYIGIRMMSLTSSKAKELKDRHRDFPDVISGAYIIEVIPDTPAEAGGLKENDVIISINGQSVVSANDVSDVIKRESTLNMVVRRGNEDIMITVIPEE

pKd	Binder
below the threshold	B1
below the threshold	B2
4.74	B3
3.85	B4
5.03	B5

molecular target: T2, LIN7A, O14910; experiment: holdup assay; design: key: below the threshold = too weak to quantify, mostly under pKd 3.1 to 4; conditions: plain residues with an end cap or a label only (N-terminal biotin on a linker: ado-ado)

pKd	Binder
below the threshold	B1
below the threshold	B2
below the threshold	B3
below the threshold	B4
below the threshold	B5

molecular target: T3, PTPN13_1, Q12923; experiment: holdup assay; design: key: below the threshold = too weak to quantify, mostly under pKd 3.1 to 4; conditions: plain residues with an end cap or a label only (N-terminal biotin on a linker: ado-ado)

pKd	Binder
below the threshold	B1
below the threshold	B2
below the threshold	B3
below the threshold	B4
below the threshold	B5

molecular target: MAGI1_1, Q96QZ7; experiment: holdup assay; design: key: below the threshold = too weak to quantify, mostly under pKd 3.1 to 4; conditions: plain residues with an end cap or a label only (N-terminal biotin on a linker: ado-ado)
Sequence (Q96QZ7 1-106): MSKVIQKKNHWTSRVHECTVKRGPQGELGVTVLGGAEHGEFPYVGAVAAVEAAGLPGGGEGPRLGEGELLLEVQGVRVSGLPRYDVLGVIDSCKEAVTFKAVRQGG

pKd	Binder
below the threshold	B1
below the threshold	B2
below the threshold	B3
below the threshold	B4
below the threshold	B5

molecular target: GRASP, Q7Z6J2; experiment: holdup assay; design: key: below the threshold = too weak to quantify, mostly under pKd 3.1 to 4; conditions: plain residues with an end cap or a label only (N-terminal biotin on a linker: ado-ado)
Sequence (Q7Z6J2 96-193): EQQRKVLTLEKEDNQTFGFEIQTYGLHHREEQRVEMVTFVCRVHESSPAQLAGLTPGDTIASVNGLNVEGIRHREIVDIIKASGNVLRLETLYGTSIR

pKd	Binder
below the threshold	B1
3.96	B2
below the threshold	B3
3.59	B4
3.51	B5

molecular target: T4, ARHGEF11, O15085; experiment: holdup assay; design: key: below the threshold = too weak to quantify, mostly under pKd 3.1 to 4; conditions: plain residues with an end cap or a label only (N-terminal biotin on a linker: ado-ado)

pKd	Binder
below the threshold	B1
4.3	B2
below the threshold	B3
below the threshold	B4
4.16	B5

molecular target: FRMPD2_1, Q68DX3; experiment: holdup assay; design: key: below the threshold = too weak to quantify, mostly under pKd 3.1 to 4; conditions: plain residues with an end cap or a label only (N-terminal biotin on a linker: ado-ado)
Sequence (Q68DX3 770-861): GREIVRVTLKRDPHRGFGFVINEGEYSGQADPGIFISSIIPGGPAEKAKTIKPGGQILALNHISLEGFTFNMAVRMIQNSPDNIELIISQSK

pKd	Binder
below the threshold	B1
below the threshold	B2
below the threshold	B3
3.53	B4
4.36	B5

molecular target: MAGI2_5, Q86UL8; experiment: holdup assay; design: key: below the threshold = too weak to quantify, mostly under pKd 3.1 to 4; conditions: plain residues with an end cap or a label only (N-terminal biotin on a linker: ado-ado)
Sequence (Q86UL8 915-1017): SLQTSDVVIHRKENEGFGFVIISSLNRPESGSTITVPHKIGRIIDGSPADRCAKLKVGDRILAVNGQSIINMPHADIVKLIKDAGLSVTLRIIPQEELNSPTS

pKd	Binder
below the threshold	B1
3.72	B2
below the threshold	B3
below the threshold	B4
below the threshold	B5

molecular target: MAGI2_3, Q86UL8; experiment: holdup assay; design: key: below the threshold = too weak to quantify, mostly under pKd 3.1 to 4; conditions: plain residues with an end cap or a label only (N-terminal biotin on a linker: ado-ado)
Sequence (Q86UL8 600-682): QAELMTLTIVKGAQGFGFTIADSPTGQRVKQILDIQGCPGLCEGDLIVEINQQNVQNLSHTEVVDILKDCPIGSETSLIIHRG

pKd	Binder
3.56	B1
below the threshold	B2
below the threshold	B3
below the threshold	B4
below the threshold	B5

molecular target: GIPC2, Q8TF65; experiment: holdup assay; design: key: below the threshold = too weak to quantify, mostly under pKd 3.1 to 4; conditions: plain residues with an end cap or a label only (N-terminal biotin on a linker: ado-ado)
Sequence (Q8TF65 112-203): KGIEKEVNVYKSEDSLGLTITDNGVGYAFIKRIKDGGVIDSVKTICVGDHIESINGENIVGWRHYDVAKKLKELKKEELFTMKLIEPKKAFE

pKd	Binder
below the threshold	B1
4.08	B2
below the threshold	B3
3.79	B4
below the threshold	B5

molecular target: T5, GRIP1_5, Q9Y3R0; experiment: holdup assay; design: key: below the threshold = too weak to quantify, mostly under pKd 3.1 to 4; conditions: plain residues with an end cap or a label only (N-terminal biotin on a linker: ado-ado)

pKd	Binder
below the threshold	B1
below the threshold	B2
below the threshold	B3
below the threshold	B4
below the threshold	B5

molecular target: T6, MPP7, Q5T2T1; experiment: holdup assay; design: key: below the threshold = too weak to quantify, mostly under pKd 3.1 to 4; conditions: plain residues with an end cap or a label only (N-terminal biotin on a linker: ado-ado)

pKd	Binder
below the threshold	B1
below the threshold	B2
5.18	B3
below the threshold	B4
below the threshold	B5

molecular target: GRID2IP_1, A4D2P6; experiment: holdup assay; design: key: below the threshold = too weak to quantify, mostly under pKd 3.1 to 4; conditions: plain residues with an end cap or a label only (N-terminal biotin on a linker: ado-ado)
Sequence (A4D2P6 1-87): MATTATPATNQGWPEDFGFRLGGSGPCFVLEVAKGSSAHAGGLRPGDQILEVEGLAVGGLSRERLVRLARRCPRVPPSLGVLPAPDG

pKd	Binder
below the threshold	B1
below the threshold	B2
below the threshold	B3
below the threshold	B4
below the threshold	B5

molecular target: SCRIB_2, Q14160; experiment: holdup assay; design: key: below the threshold = too weak to quantify, mostly under pKd 3.1 to 4; conditions: plain residues with an end cap or a label only (N-terminal biotin on a linker: ado-ado)
Sequence (Q14160 857-960): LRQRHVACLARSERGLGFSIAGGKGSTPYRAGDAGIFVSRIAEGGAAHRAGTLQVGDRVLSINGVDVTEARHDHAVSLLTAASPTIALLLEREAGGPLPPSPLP

pKd	Binder
below the threshold	B1
4.28	B2
3.69	B3
below the threshold	B4
below the threshold	B5

molecular target: T7, SYNJ2BP, P57105; experiment: holdup assay; design: key: below the threshold = too weak to quantify, mostly under pKd 3.1 to 4; conditions: plain residues with an end cap or a label only (N-terminal biotin on a linker: ado-ado)

pKd	Binder
below the threshold	B1
4.84	B2
below the threshold	B3
below the threshold	B4
below the threshold	B5

molecular target: T8, MPP6, Q9NZW5; experiment: holdup assay; design: key: below the threshold = too weak to quantify, mostly under pKd 3.1 to 4; conditions: plain residues with an end cap or a label only (N-terminal biotin on a linker: ado-ado)

pKd	Binder
below the threshold	B1
below the threshold	B2
4.7	B3
below the threshold	B4
below the threshold	B5

molecular target: MAGI1_2, Q96QZ7; experiment: holdup assay; design: key: below the threshold = too weak to quantify, mostly under pKd 3.1 to 4; conditions: plain residues with an end cap or a label only (N-terminal biotin on a linker: ado-ado)
Sequence (Q96QZ7 456-580): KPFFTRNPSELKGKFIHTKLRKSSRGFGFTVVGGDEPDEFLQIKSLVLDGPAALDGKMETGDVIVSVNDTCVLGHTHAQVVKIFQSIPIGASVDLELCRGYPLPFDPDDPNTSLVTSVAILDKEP

pKd	Binder
below the threshold	B1
3.63	B2
below the threshold	B3
below the threshold	B4
below the threshold	B5

molecular target: MAST2, Q6P0Q8; experiment: holdup assay; design: key: below the threshold = too weak to quantify, mostly under pKd 3.1 to 4; conditions: plain residues with an end cap or a label only (N-terminal biotin on a linker: ado-ado)
Sequence (Q6P0Q8 1099-1202): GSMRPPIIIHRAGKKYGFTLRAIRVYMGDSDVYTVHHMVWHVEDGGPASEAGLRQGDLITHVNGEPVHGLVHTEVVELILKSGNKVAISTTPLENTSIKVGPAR

pKd	Binder
below the threshold	B1
5.66	B2
3.68	B3
below the threshold	B4
below the threshold	B5

molecular target: T9, PDZRN3_1, Q9UPQ7; experiment: holdup assay; design: key: below the threshold = too weak to quantify, mostly under pKd 3.1 to 4; conditions: plain residues with an end cap or a label only (N-terminal biotin on a linker: ado-ado)

pKd	Binder
below the threshold	B1
4.99	B2
below the threshold	B3
below the threshold	B4
below the threshold	B5

molecular target: GRIP2_3, Q9C0E4; experiment: holdup assay; design: key: below the threshold = too weak to quantify, mostly under pKd 3.1 to 4; conditions: plain residues with an end cap or a label only (N-terminal biotin on a linker: ado-ado)
Sequence (Q9C0E4 238-339): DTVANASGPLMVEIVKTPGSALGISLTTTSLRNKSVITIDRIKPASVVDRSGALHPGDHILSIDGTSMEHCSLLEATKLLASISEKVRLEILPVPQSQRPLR

pKd	Binder
below the threshold	B1
below the threshold	B2
below the threshold	B3
below the threshold	B4
below the threshold	B5

molecular target: AHNAK1, Q09666; experiment: holdup assay; design: key: below the threshold = too weak to quantify, mostly under pKd 3.1 to 4; conditions: plain residues with an end cap or a label only (N-terminal biotin on a linker: ado-ado)
Sequence (Q09666 4-100): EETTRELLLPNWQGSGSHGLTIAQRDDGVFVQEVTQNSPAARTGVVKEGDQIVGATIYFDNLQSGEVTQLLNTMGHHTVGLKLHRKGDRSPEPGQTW

pKd	Binder
below the threshold	B1
below the threshold	B2
below the threshold	B3
below the threshold	B4
below the threshold	B5

molecular target: T10, GRIP1_7, Q9Y3R0; experiment: holdup assay; design: key: below the threshold = too weak to quantify, mostly under pKd 3.1 to 4; conditions: plain residues with an end cap or a label only (N-terminal biotin on a linker: ado-ado)

pKd	Binder
below the threshold	B1
below the threshold	B2
3.76	B3
below the threshold	B4
below the threshold	B5

molecular target: Inadl_4, Q8NI35; experiment: holdup assay; design: key: below the threshold = too weak to quantify, mostly under pKd 3.1 to 4; conditions: plain residues with an end cap or a label only (N-terminal biotin on a linker: ado-ado)
Sequence (Q8NI35 547-651): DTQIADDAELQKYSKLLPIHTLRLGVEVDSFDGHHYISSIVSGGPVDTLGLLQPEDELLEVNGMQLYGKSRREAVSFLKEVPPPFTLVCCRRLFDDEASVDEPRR

pKd	Binder
below the threshold	B1
below the threshold	B2
below the threshold	B3
below the threshold	B4
below the threshold	B5

molecular target: GRIP2_6, Q9C0E4; experiment: holdup assay; design: key: below the threshold = too weak to quantify, mostly under pKd 3.1 to 4; conditions: plain residues with an end cap or a label only (N-terminal biotin on a linker: ado-ado)
Sequence (Q9C0E4 648-740): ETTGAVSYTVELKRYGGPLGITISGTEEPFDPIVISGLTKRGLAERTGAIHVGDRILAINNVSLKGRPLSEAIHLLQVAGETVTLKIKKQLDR

pKd	Binder
below the threshold	B1
below the threshold	B2
4.67	B3
below the threshold	B4
3.48	B5
